Assay results reported in patent US20070042930A1, “Effect of beta-glucan on stem cell recruitment and tissue repair” (priority 2002, published 2007).

System: complement
Assay: G-CSF mobilization: complement activation in bone marrow
Format: in vivo, mice

B1: G-CSF: used for G-CSF-mediated stem cell mobilization (bone marrow transplantation) (protein, UniProt P09919 31-207, looked up)
Granulocyte …: TPLGPASSLPQSFLLKCLEQVRKIQGDGAALQEKLVSECATYKLCHPEELVLLGHSLGIPWAPLSSCPSQALQLAGCLSQLHSGLFLYQGLLQALEGISPELGPTLDTLQLDVADFATTIWQQMEELGMAPALQPTQGAMPAFASAFQRRAGGVLVASHLQSFLEVSYRVLRHLAQP
**Q.** B1 was tested. Which “complement activation in bone marrow” value (G-CSF mobilization, FIG. 8A and 8B) did it give?
**A.** stimulates complement activation in bone marrow with iC3b deposition on stromal cells

**Q.** And the “complement activation in bone marrow” value (immunoglobulin-deficient SCID mice, FIG. 9A through 9F)?
**A.** does not activate complement
